Measured values as given in patent US20050261170A1 (published 2005).
Primed or numbered codes have the meaning given here. NTA′ = nitrilotriacetic acid residue (Asp with its nitrogen carboxymethylated)

Target: T1, onconase bearing a six His tag (Rana pipiens, UniProt P22069 1-104)
T1 construct: also called His-tagged onconase
T1 sequence: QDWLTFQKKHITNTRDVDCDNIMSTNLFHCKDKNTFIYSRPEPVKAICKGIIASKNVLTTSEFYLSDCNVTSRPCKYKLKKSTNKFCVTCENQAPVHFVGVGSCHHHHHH
Experiment: SPR (Biacore C1 chip): IMP 267 immobilised by a disulfide and loaded with NiCl2, flow cell without nickel as control, His-tagged onconase at 0-50 nM as analyte
Procedure: IMP 267 was bound to a Biacore® C1 sensor chip first by dissolving 0.0040 g of IMP 267 in 690 μL of 0.01 M, pH 4.3 formate buffer. The chip was activated for coupling of the peptide via a disulfide linkage using pyridyldithioelthylamine (“PDEA”) as described by Biacore. The Biacore® C1 chip was activated with a 10 μL aliquot of the recommended 1-ethyl-3-(3-dimethylaminoprolyl) carbodiimide (“EDC”)/N-hydroxysuccinimide (“NHS”) mixture at 5 μL/min in flow cells 1 & 2. The recommended PDEA solution, 35 μL (0.0047 g PDEA in 0.1 M, pH 8.5 Borate buffer) was added to the chip at flow cells 1 & 2. The peptide, 35 μL was added to flow cells 1 & 2 and the chip was quenched with an aliquot of cysteine (made from 0.0026 g cys, 0.0268 g NaCl, and 433 μL 0.1 M, pH 4.3 formate buffer) into cells 1 & 2. The chip was activated by adding nickel to only one flow cell using the other flow cell, without nickel, as the control. The activation was done at 40 μL/min using 100 μL of a 500 μM NiCl₂ solution in NTA buffer. A kinetics experiment was performed using the following concentrations of onconase bearing a six His tag (50 nM, 25 nM, 10 nM, 5 nM, 1 nM and 0 nM). […] The affinity of His-tagged onconase is accessed similarly.

B1: IMP 267 (peptide)
peptide: Ac-CK(NTA′)K(NTA′)K(NTA′)-NH2
modifications: also: Cys thiol coupled to Biacore C1 chip by disulfide (PDEA), loaded with Ni2+
notes: Synthetic tri-NTA peptide; also called peptide that includes nitrilotriacetic acid residues
**Q.** For B1, which Kd is on record?
**A.** 1.15 nM
